Experimental data from the Immune Epitope Database (IEDB).

Tests used:
Assay in all cases: IEDB peptide-MHC binding, purified MHC/competitive/fluorescence; filed as Kd, often an IC50 or EC50 that approximates it; ≥ and ≤ were set here for values at or beyond the usual limits of such assays
HLA-A*02:01 = settings: source organism: Escherichia coli F11
HLA-B*15:42 = settings: source organism: Escherichia coli F11
HLA-B*40:13 = settings: source organism: Escherichia coli F11
HLA-B*45:06 = settings: source organism: Escherichia coli F11
HLA-B*83:01 = settings: source organism: Escherichia coli F11
HLA-A*11:01 = settings: source organism: Homo sapiens
HLA-A*26:02 = settings: source organism: Homo sapiens
HLA-A*26:03 = settings: source organism: Homo sapiens
HLA-A*68:02 = settings: source organism: Homo sapiens
HLA-B*08:01 = settings: source organism: Homo sapiens
HLA-B*08:03 = settings: source organism: Homo sapiens
HLA-B*15:09 = settings: source organism: Homo sapiens
HLA-B*15:17 = settings: source organism: Homo sapiens

Kd (HLA-A*02:01) [µM]	Kd (HLA-B*15:42) [µM]	Kd (HLA-B*40:13) [µM]	Kd (HLA-B*45:06) [µM]	Kd (HLA-B*83:01) [µM]	Kd (HLA-A*11:01) [µM]	Kd (HLA-A*26:02) [µM]	Kd (HLA-A*26:03) [µM]	Kd (HLA-A*68:02) [µM]	Kd (HLA-B*08:01) [µM]	Kd (HLA-B*08:03) [µM]	Kd (HLA-B*15:09) [µM]	Kd (HLA-B*15:17) [µM]	Sequence
≤ 0.0001	≥ 5	0.458	≥ 5	≥ 5									GLIPQWVTL
					≥ 20	0.531	≥ 20	3.22	≥ 20	≥ 20	≥ 20	≥ 20	TYSPALNKM
